# Patent US20090291081A1 (AbbVie / Abbott, published 2009)
# Where “and” joins values, the source holds several entries; their conditions need not be identical. Equal entries are not always repeated. Where two headings read alike, the source gives them in different places.
# T1: human IL-1α (human, UniProt P01583 113-271)
# T1 sequence (looked up): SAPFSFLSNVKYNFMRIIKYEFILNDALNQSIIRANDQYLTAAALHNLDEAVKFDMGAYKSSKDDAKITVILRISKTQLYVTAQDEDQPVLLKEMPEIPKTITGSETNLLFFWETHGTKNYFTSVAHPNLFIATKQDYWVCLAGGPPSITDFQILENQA
# T2: human IL-1α (human, UniProt P01583 113-271)
# T2 sequence (looked up): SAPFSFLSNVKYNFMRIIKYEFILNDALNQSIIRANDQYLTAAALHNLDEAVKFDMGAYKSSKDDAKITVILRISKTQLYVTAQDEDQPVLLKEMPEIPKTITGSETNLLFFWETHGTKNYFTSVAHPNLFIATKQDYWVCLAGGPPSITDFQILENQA
# B1: ABT2-108-605/ABT1-122 hu IgG1/K wt (bispecific antibody, V domains shown)
# VH: EVQLLESGGGLVQPGGSLRLSCAASGFTFAEYTMMWVRQAPGKGLEWVSRIGQDGKNTYYREDVKGRFTISRDNSKNTLYLQMNSLRAEDTAVYYCAKYTGRVGVHHLFDYWGQGTLVTVSS
# VL: DIQMTQSPSSLSASVGDRVTITCRASQPIWTELNWYQQKPGKAPKLLIYGSSSLQSGVPRFSGSGSGTDFTLTISSLQPEDFATYYCQQFAYFPATFGQGTKVEIKR
# B2: ABT2-108-620x/ABT1-122 huIgG1/K wt (bispecific antibody, V domains shown)
# VH: EVQLLESGGGLVQPGGSLRLSCAASGFTFAEESWMWVRQAPGKGLEWVSRIGQDGKNTYYREDVKGRFTISRDNSKNTLYLQMNSLRAEDTAVYYCAKYTGRIMGHHLFDYWGQGTLVTVSS
# VL: DIQMTQSPSSLSASVGDRVTITCRASQPIWTELNWYQQKPGKAPKLLIYGSSSLQSGVPRFSGSGSGTDFTLTISSLQPEDFATYYCQQFAYFPATFGQGTKVEIKR
# B3: ABT2-65 (other)
# VH: EVQLLESGGGLVQPGGSLRLSCAASGFTFEDYQMGWVRQAPGKGLEWVSSISAMGNRTYYADSVKGRFTISRDDSKNTLYLQMNSLRAEDTAVYYCAKNLVRTQSKMWMFDYWGQGTLVTVSS
# notes: VH dAb
# B4: ABT1-98 (other)
# VH: EVQLLESGGGLVQPGGSLRLSCAASGFTFDGYIMSWVRQAPGKGLEWVSTISPLGSVTYYADSVKGRFTISRDNSKNTLYLQMNSLRAEDTAVYYCAKKGPWFDYWGQGTLVTVSS
# notes: VH dAb
# B5: ABT1-86 (other)
# VH: EVQLLESGGGLVQPGGSLRLSCAASGFTFDRYIMAWVRQAPGKGLEWVSSITPSGAATYYADSVKGRFTISRDNSKNTLYLQMNSLRAEDTAVYYCAEEPADRYSTWTFDYWGQGTLVTVSS
# notes: VH dAb
# B6: ABT1-95-4 (other)
# VL: DIQMTQSPSSLSASVGDRVTITCRASQPIVRNLRWYQQKPGKAPKLLIYSSSYLQSGVPSRFSGSGSGTDFTLTISSLQPEDFATYHCQQGYRWPVTFGQGTKVEIKR
# notes: dAb, Vκ, to IL-1α
# B7: ABT1-95 (other)
# VL: DIQMTQSPSSLSASVGDRVTITCRASQPIHGNLRWYQQKPGKAPKLLIYNISNLQSGVPSRFSGSGSGTDFTLTISSLQPEDFATYYCQQGYRWPVTFGQGTKVEIKR
# notes: VK dAb
# B8: ABT1-141 (other)
# VL: DIQMTQSPSSLSASVGDRVTITCRASQWIQKQLAWYQQKPGKAPKLLIYSSSYLQSGVPSRFSGSGSGTDFTLTISSLQPEDFATYYCQQHLRVPFTFGQGTKVEIKR
# notes: VK dAb
# B9: ABT1-122 (other)
# VL: DIQMTQSPSSLSASVGDRVTITCRASQPIWTELNWYQQKPGKAPKLLIYGSSSLQSGVPSRFSGSGSGTDFTLTISSLQPEDFATYYCQQFAYFPATFGQGTKVEIKR
# notes: VK dAb
# B10: ABT2-46 (other)
# VL: DIQMTQSPSSLSASVGDRVTITCRASQSIIEWLSWYQQKPGKAPKLLIYRTSVLQSGVPSRFSGSGSGTDFTLTISSLQPEDFATYYCQQNEFWPFTFGQGTKVEIKR
# notes: VK dAb
# B11: ABT2-76 (other)
# VL: DIQMTQSPSSLSASVGDRVTITCRASQSIDRWLAWYQQKPGKAPKLLIYRGSILQSGVPSRFSGSGSGTDFTLTISSLQPEDFATYYCQQVAFWPPTFGQGTKVEIKR
# notes: VK dAb
# B12: ABT2-42 (other)
# VL: DIQMTQSPSSLSASVGDRVTITCRASQYIEKWLTWYQQKPGKAPTLLIYRGSLLQSGVPSRFSGSGSGTDFTLTISSLQPEDFATYYCQQTEYWPFTFGQGTKVEIKR
# notes: VK dAb
# B13: ABT2-13 (other)
# VH: EVQLLESGGGLVQPGGSLRLSCAASGFTFRDYVMYWARQAPGKGLEWVSRIDPMGSSTYYADSVKGRFTISRDNSKNTLYLQMNSLRAEDTAVYYCAKPEGNFDYWGQGTLVTVSS
# notes: VH dAb
# B14: ABT1-6-23 (other)
# VH: EVQLLESGGGLVQPGGSLRLSCAASGFTFVRYDMAWVRQAPGKGLEWVSSIYKSGALTSYADSVKGRFTISRDNSKNTLYLQMNSLRAEDTAVYYCAKGWASFDYWGQGTLVTVSS
# notes: VH dAb
# B15: ABT2-108/ABT1-122-511 hu IgG1/K wt (bispecific antibody, V domains shown)
# VH: EVQLLESGGGLVQPGGSLRLSCAASGFTFAEYTMMWVRQAPGKGLEWVSRIGQDGKNTYYADSVKGRFTISRDNSKNTLYLQMNSLRAEDTAVYYCAKYTGRVGVHHLFDYWGQGTLVTSS
# VL: DIQMTQSPSSLSASVGDRVTITCRASQPIWTELNWYQQKPGKAPKLLIYGSSSLQRGVPSRFSGSGSGTDFTLTISSLQPEDFATYYCKQFAYFPATFGQGTKVEIKR
# B16: ABT2-108 (other)
# VH: EVQLLESGGGLVQPGGSLRLSCAASGFTFAEYTMMWVRQAPGKGLEWVSRIGQDGKNTYYADSVKGRFTISRDNSKNTLYLQMNSLRAEDTAVYYCAKYTGRVGVHHLFDYWGQGTLVTSS
# notes: VH dAb
# B17: ABT2-108/ABT1-122 hu IgG1/K wt (bispecific antibody, V domains shown)
# VH: EVQLLESGGGLVQPGGSLRLSCAASGFTFAEYTMMWVRQAPGKGLEWVSRIGQDGKNTYYADSVKGRFTISRDNSKNTLYLQMNSLRAEDTAVYYCAKYTGRVGVHHLFDYWGQGTLVTSS
# VL: DIQMTQSPSSLSASVGDRVTITCRASQPIWTELNWYQQKPGKAPKLLIYGSSSLQSGVPRFSGSGSGTDFTLTISSLQPEDFATYYCQQFAYFPATFGQGTKVEIKR
# B18: ABT2-108-620x/ABT1-122-511 huIgG1/K wt (bispecific antibody, V domains shown)
# VH: EVQLLESGGGLVQPGGSLRLSCAASGFTFAEESWMWVRQAPGKGLEWVSRIGQDGKNTYYREDVKGRFTISRDNSKNTLYLQMNSLRAEDTAVYYCAKYTGRIMGHHLFDYWGQGTLVTVSS
# VL: DIQMTQSPSSLSASVGDRVTITCRASQPIWTELNWYQQKPGKAPKLLIYGSSSLQRGVPSRFSGSGSGTDFTLTISSLQPEDFATYYCKQFAYFPATFGQGTKVEIKR
# B19: ABT1-96 (other)
# VH: EVQLLESGGGLVQPGGSLRLSCAASGFTFNQYNMFWVRQAPGKGLEWVSVISGSGRFTYYADSVKGRFTISRDNSKNTLYLQMNSLRAEDTAVYYCAKGWWRRDPPFDYWGQGTLVTVSS
# notes: VH dAb
# What was measured:
# human IL-1β [1] = target: T3, human IL-1β (human, UniProt P01584 117-269); experiment: cell-based or functional assay
# human IL-1β [2] = target: T3, human IL-1β; experiment: cell-based or functional assay; remark: listed apart in the source
# human IL-1α [3] = target: T1, human IL-1α; experiment: cell-based or functional assay
# human IL-1β [4] = target: T4, human IL-1β (human, UniProt P01584 117-269); experiment: BIAcore (SPR)
# T4 construct: also called IL-1beta; hIL-1β
# human IL-1β [5] = target: T4, human IL-1β; experiment: cell-based or functional assay; remark: listed apart in the source
# human IL-1α [6] = target: T2, human IL-1α; experiment: cell-based or functional assay; remark: listed apart in the source
# human IL-1α [7] = target: T2, human IL-1α; experiment: BIAcore (SPR)
# human IL-1α [8] = target: T2, human IL-1α; experiment: cell-based or functional assay; remark: listed apart in the source
# human IL-1α [9] = target: T2, human IL-1α; experiment: Table 62 IC50; RBA presumed
# human IL-1α [10] = target: T1, human IL-1α; experiment: cell-based or functional assay; remark: listed apart in the source
# human IL-1α [11] = target: T1, human IL-1α; experiment: method not given
# human IL-1α [12] = target: T2, human IL-1α; experiment: Table 62 KD; BIAcore presumed
# human IL-1β [13] = target: T3, human IL-1β; experiment: cell-based or functional assay; remark: listed apart in the source
# human IL-1α [14] = target: T1, human IL-1α; experiment: cell-based or functional assay; remark: listed apart in the source
Binder,Kd (human IL-1β [4]) [nM],MRC5 ND50 (human IL-1β [5]) [nM],ND50 (human IL-1α [6]) [nM],Kd (human IL-1α [7]) [nM],MRC5 ND50 (human IL-1α [8]) [nM],further results
B1,,,,,,MRC-5 IL-1β neutralization potency (human IL-1β [1]): ~0.35 nM
B2,,,,,,MRC-5 IL-1β neutralization potency (human IL-1β [1]): ~0.05 nM; IL-1β IC50 (human IL-1β [2]): 0.05 nM; IL-1α IC50 (human IL-1α [3]): 150 nM
B3,28,266,,,,
B4,,,< 100,13,30,
B5,,,900,110,900,IC50 (human IL-1α [9]): 1000 nM
B6,,,,,,MRC5 ND50 (human IL-1α [10]): 0.9 nM; Kd (human IL-1α [11]): 0.9 nM
B7,,,800,45,800,IC50 (human IL-1α [9]): 500 nM
B8,,,142,300,50,
B9,,,100,42,50,IC50 (human IL-1α [9]): 80 nM
B10,2800,386,,,,
B11,1300,456,,,,
B12,54000,770,,,,
B13,930,~1000,,,,
B14,,,30,61,,IC50 (human IL-1α [9]): 30 nM; Kd (human IL-1α [12]): 6 nM
B15,,,,,,MRC-5 IL-1β neutralization potency (human IL-1β [1]): ~8 nM; MRC5 IL-1β (human IL-1β [13]): 8 nM; MRC5 IL-1α (human IL-1α [14]): 80 nM; IL-1β IC50 (human IL-1β [2]): 8 nM; IL-1α IC50 (human IL-1α [3]): 40 nM
B16,110,200,,,,
B17,,,,,,MRC-5 IL-1β neutralization potency (human IL-1β [1]): ~15 nM; IL-1β IC50 (human IL-1β [2]): 15 nM and 20 nM and 40 nM
B18,,,,,,MRC-5 IL-1β neutralization potency (human IL-1β [1]): ~0.03 nM; IL-1β IC50 (human IL-1β [2]): 0.01 nM and 0.02 nM and 0.03 nM
B19,,,17,1.1,11,
